Measured values as given in paper PMC4278681.

B1: TTCTGA 6-mer (ssDNA)
DNA: TTCTGA
B2: TTCTGT 6-mer (ssDNA)
DNA: TTCTGT

Molecular target: T1, N-HvGR-RBP1 (RRM domain) (Hordeum vulgare L., UniProt J7FTI7 1-92)
T1 sequence: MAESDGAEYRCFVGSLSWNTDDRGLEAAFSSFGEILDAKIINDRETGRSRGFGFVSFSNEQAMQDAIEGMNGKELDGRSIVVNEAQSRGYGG
Assay: NMR

| Binder | binding result |
| --- | --- |
| B1 | binds |
| B2 | binds |
